Experimental data: patent US20200040396A1 (TECHNION RESEARCH AND DEVELOPMENT FOUNDATION, published 2020)

B1: WT-ZnT2-YN (other)
chain: MEAKEKQHLLDARPAIRSYTGSLWQEGAGWIPLPRPGLDLQAIELAAQSNHHCHAQKGPDSHCDPKKGKAQRQLYVASAICLLFMIGEVVGGYLAHSLAVMTDAAHLLTDFASMLISLFSLWMSSRPATKTMNFGWQRAEILGALVSVLSIWVVTGVLVYLAVERLISGDYEIDGGTMLITSGCAVAVNIIMGLTLHQSGHGHSHGTTNQQEENPSVRAAFIHVIGDFMQSMGVLVAAYILYFKPEYKYVDPICTFVFSILVLGTTLTILRDVILVLMEGTPKGVDFTAVRDLLLSVEGVEALHSLHIWALTVAQPVLSVHIAIAQNTDAQAVLKTASSRLQGKFHFHTVTIQIEDYSEDMKDCQACQGPSD
modifications: Carries a C-terminal YN reporter (non-fluorescent N-terminal half of YFP), not included in the letters.
notes: BiFC construct expressed in living MCF-7 cells; not shown: YN, the N-terminal half of YFP, and any linker to it
B2: Δ9AA-ZnT2-YN (other)
chain: MEAKEKQHLLDARPAIRSYTGSLWQEGAGWIPLPRPGLDLQAIELAAQSNHHCHAQKGPDSHCDPKKGKAQRQLYVASAICLLFMIGEVVGGYLAHSLAVMTDAAHLLTDFASMLISLFSLWMSSRPATKTMNFGWQRAEILGALVSVLSIWVVTGVLVYLAVERLISGDYEIDGGTMLITSGCAVAVNIIMGLTLHQSGHGHSHGTTNQQEENPSVRAAFIHVIGDFMQSMGVLVAAYILYFKPEYKYVDPICTFVFSILVLGTTLTILRDVILVLMEAVRDLLLSVEGVEALHSLHIWALTVAQPVLSVHIAIAQNTDAQAVLKTASSRLQGKFHFHTVTIQIEDYSEDMKDCQACQGPSD
modifications: Carries a C-terminal YN reporter (non-fluorescent N-terminal half of YFP), not included in the letters.
notes: Deletion introduced into the ZnT2 BiFC plasmid by site-directed mutagenesis (27 bp, 839_865del); also called Δ9AA-YN; truncated Δ9AA-ZnT2; not shown: YN, the N-terminal half of YFP, and any linker to it
B3: Δ9AA-ZnT2-YC (other)
chain: B2 chain
modifications: Carries a C-terminal YC reporter (non-fluorescent C-terminal half of YFP), not included in the letters.
notes: Deletion introduced into the ZnT2 BiFC plasmid by site-directed mutagenesis (27 bp, 839_865del); also called Δ9AA-YC; truncated Δ9AA-ZnT2; not shown: YC, the C-terminal half of YFP, and any linker to it

Experiments:
WT-ZnT2-YC [1] = biological target: T1, WT-ZnT2-YC (human, UniProt Q9BRI3 1-372, Carries a C-terminal YC reporter (non-fluorescent C-terminal half of YFP), not included in the letters.); test: western blot of BiFC transfectants (SDS-metastable dimers), anti-ZnT2 antibody
T1 construct: BiFC construct expressed in living MCF-7 cells; not shown: YC, the C-terminal half of YFP, and any linker to it
T1 sequence: B1 chain
Procedure: MCF-7 cells were transiently transfected with the designated plasmids (3 μg in single construct transfection and 1.5 μg DNA of each construct in co-transfections). Membrane proteins were isolated on ice using an extraction buffer as previously described (Golan Y., et al., Journal of Biological Chemistry, 2015, 290(14):9050-63). Briefly, proteins (30 μg) were resolved by electrophoresis on 10% polyacrylamide gels, electroblotted onto cellulose nitrate membranes, blocked with Tris-buffered saline (TBS)-milk and reacted with mouse anti-ZnT2 monoclonal antibody (at 1:2,000 dilution, 1 hr at room temperature; generously provided by Prof T Kambe, Kyoto University, Kyoto, Japan). […] Similarly, actual protein loading onto the SDS-PAGE gels was confirmed by blot reprobing with a rabbit polyclonal antibody against the a subunit of Na⁺/K⁺ ATPase (KETTY at 1:3,000 dilution; kindly provided by Prof. S. J. D. Karlish, Weizmann Institute of Science, Rehovot, Israel) and detected with horseradish peroxidase-conjugated goat anti-rabbit IgG (1:15,000 dilution; Jackson Immunoresearch Labs, West Grove, Pa.).
The dimerization results were further confirmed by western blot analysis. […] However, in contrast to the ZnT2 protein which was predominantly present in the homodimer form (FIG. 4C, uppermost band), upon co-transfection of Δ9AA-YN+Δ9AA-YC no homodimers were detected (FIG. 4C). […]

β2AR-YC = biological target: T2, β2AR-YC (UniProt P07550 1-413); test: BiFC in MCF-7 cells, YFP fluorescence by flow cytometry
T2 construct: whole, on cells; Negative control partner in the BiFC assay; not shown: YC: non-fluorescent C-terminal half of YFP (BiFC tag)
Procedure: (§1) The ability of the alternative 3′ splice variant (Δ9AA) ZnT2 to form homodimers was evaluated using the bimolecular fluorescence complementation (BiFC) assay that has been previously applied for the detection of in situ dimerization of ZnT2 and other ZnTs in living cells. High YFP fluorescence intensity indicates a strong interaction between the two tagged proteins, as this enables the refolding of the two non-fluorescent halves of YFP (YN and YC) into a fully fluorescent protein.

Δ9AA-ZnT2-YC = biological target: B3; test: as above
Procedure: as §1

WT-ZnT2-YC [2] = biological target: T1, WT-ZnT2-YC; test: as above
Procedure: as §1

WT-ZnT2-YN = biological target: B1; test: as above
Procedure: as §1

Binder: B1
- binding result (WT-ZnT2-YC [1]): binds
- binding result (β2AR-YC): no binding

Binder: B2
- binding result (Δ9AA-ZnT2-YC): no binding
- binding result (WT-ZnT2-YC [2]): no binding

Binder: B3
- binding result (WT-ZnT2-YN): no binding
